Experimental data reported in US20170260258A1 (GENEONE LIFE SCIENCE, published 2017).

Experiments:
[1] = biological target: T1, L1CAM on L1CAM-overexpressing human cholangiocarcinoma cells (SCK-L1) (UniProt P32004 20-1257); assay: flow cytometry
T1 construct: whole, on cells; also called L1 cell adhesion molecule

[2] = biological target: T2, GST-pre-S1 (1st to 56th amino acids) protein (hepatitis B virus, UniProt P08515 1-218 = GST); assay: BLI (Octet Red)
[3] = biological target: T2, GST-pre-S1 (1st to 56th amino acids) …; assay: BLI (Octet Red), antibody captured on anti-human Fc tip, GST-pre-S1 in solution
Method: Thereafter, the biosensor tip was saturated with 2 μg/mL of the antibody for 10 minutes. […] The binding and separation rates were measured for 15 minutes and 30 minutes, respectively. In all the measurements, a baseline drift was corrected by subtracting a control sensor exposed to only a running buffer. The operating temperature was maintained at 30° C. The data was analyzed using a 1:1 interaction model (fitting global, Rmax unlinked by sensor) equipped with ForteBio data analysis software 7.0.

[4] = biological target: T2, GST-pre-S1 (1st to 56th amino acids) …; assay: affinity determination (competitive ELISA / Octet Red; FIGS. 2 to 5 cited)

T2 sequence (P08515 whole entry): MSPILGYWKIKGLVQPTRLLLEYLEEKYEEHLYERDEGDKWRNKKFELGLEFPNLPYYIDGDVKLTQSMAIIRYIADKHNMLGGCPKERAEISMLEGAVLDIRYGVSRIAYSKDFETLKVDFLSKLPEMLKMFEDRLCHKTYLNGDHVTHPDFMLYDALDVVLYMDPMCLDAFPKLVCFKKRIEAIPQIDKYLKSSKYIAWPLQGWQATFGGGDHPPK
T1 sequence (P32004 20-1257 limits assumed): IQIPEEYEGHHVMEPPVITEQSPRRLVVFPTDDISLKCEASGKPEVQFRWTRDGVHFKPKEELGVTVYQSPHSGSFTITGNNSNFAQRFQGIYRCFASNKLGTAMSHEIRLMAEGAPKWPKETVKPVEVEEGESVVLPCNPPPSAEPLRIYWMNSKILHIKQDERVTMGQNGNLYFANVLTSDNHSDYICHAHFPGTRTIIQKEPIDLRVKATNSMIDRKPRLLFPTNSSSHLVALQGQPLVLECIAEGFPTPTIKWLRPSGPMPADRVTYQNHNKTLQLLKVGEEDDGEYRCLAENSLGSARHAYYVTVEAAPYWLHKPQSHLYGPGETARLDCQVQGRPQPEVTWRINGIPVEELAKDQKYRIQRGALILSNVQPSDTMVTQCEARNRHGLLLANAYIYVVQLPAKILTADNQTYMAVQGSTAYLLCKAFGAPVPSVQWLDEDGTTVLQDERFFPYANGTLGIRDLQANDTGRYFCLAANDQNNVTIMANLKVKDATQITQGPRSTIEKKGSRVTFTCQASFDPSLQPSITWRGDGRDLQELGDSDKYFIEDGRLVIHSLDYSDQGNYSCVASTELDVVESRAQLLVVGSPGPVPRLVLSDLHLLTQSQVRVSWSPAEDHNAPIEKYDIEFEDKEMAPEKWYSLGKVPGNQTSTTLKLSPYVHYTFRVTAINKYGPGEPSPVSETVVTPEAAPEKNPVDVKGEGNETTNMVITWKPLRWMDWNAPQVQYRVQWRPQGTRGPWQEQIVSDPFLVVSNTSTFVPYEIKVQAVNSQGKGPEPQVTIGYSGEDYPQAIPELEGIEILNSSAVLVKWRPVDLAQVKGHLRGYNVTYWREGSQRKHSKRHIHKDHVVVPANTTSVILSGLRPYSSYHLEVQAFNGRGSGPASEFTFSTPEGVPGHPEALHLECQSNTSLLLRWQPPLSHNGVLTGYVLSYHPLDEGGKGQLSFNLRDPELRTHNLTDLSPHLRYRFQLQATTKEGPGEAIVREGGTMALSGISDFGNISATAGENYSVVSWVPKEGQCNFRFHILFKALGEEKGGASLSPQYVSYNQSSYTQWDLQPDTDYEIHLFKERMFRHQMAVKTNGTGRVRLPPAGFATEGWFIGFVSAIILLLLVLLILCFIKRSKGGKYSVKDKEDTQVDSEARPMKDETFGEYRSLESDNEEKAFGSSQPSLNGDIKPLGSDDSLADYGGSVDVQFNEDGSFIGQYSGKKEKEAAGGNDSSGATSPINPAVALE

B1: humanized antibody HzKR127-3.2 (antibody, V domains shown)
VH: QVQLQQSGAEVKKPGASVKVSCKASGYTFTSSWMNWVRQAPGQGLEWMGRIYPGDGDTSYAQKFQGRVTMTADKSTSTVYMELSSLRSEDTAVYYCAREYAEAYWGQGTLVTVSS
VL: DIVMTQTPLSLSVTPGQPASISCKSSQSLLYSNGKTYLNWLLQKPGQPPQRLIYLVSNRDSGVPDRFSGSGSGTDFTLKISRVEAEDVGVYYCVQGTHFPQTFGGGTKVEIKR
[1]
  binding result: no binding (tested: 1 µg of the antibody in 100 µL)
[2]
  fold higher affinity than HzKR127-3.1: 1.6 fold
[3]
  Kd: 0.493 nM
  koff: 5.32e-05 s⁻¹
  kon: 108000 M⁻¹ s⁻¹
[4]
  fold higher affinity than KR127: 2.5 fold
